Measurements as given in patent US12539335B2, “Tricyclic polypeptide conjugated drug and use thereof” (CONJUSTAR (ZHUHAI) BIOLOGICS CO., LTD., priority 2021, dated 2026).
Structures can show the parent of a compound that is named as a salt. Starred links: 1 amine or outer side, 2 acyl side, 3 side chain; linkers in the order of their positions; H or OH if unused. Positions of bridges follow the written chain, without caps; N, C: chain ends. Non-standard residues stand in square brackets, D forms with d. Residues, ends and D or L forms follow the SMILES beside them. Chains are numbered I, II in the order given. *: point of attachment. TATA = O=C(CC[*:1])N1CN(C(=O)CC[*:2])CN(C(=O)CC[*:3])C1; Dolaproine = CO[C@@H]([C@@H]1CCCN1)[C@@H](C)C(=O)O; Dil = CC[C@H](C)[C@H](NC)[C@@H](CC(=O)O)OC; 1Nal = N[C@@H](Cc1cccc2ccccc12)C(=O)O; X2 = O=C(CCCC(=O)[*:2])NCCC(=O)[*:1]; PABC = O=C(OCc1ccc(N[*:1])cc1)[*:2]; X1 = C[C@@H](N*)[C@@H](O)c1ccccc1; Hyp = O=C(O)[C@@H]1C[C@@H](O)CN1; hArg = N=C(N)NCCCC[C@H](N)C(=O)O; Cit = NC(=O)NCCC[C@H](N)C(=O)O; Pen = CC(C)(S)[C@H](N)C(=O)O; NMeV = CN[C@H](C(=O)O)C(C)C; Sar = CNCC(=O)O

Experiments:
Assay type in all cases: in vitro ADME
[1] = Metabolic stability in kidney S9, humans; conditions: human
Experimental: (§1) Test Example 8: Metabolic Stability of the Compounds of the Present Invention in Kidney S9 from Mice, Rats, Cynomolgus Macaques, and Humans
(§2) To investigate the metabolic stability of the compounds of the present invention in kidney S9 from mice, rats, Cynomolgus macaques, and humans.
(§3) Materials: Kidney S9 from CD-1 mice, SD rats, Cynomolgus macaques, and humans were purchased from BioIVT or XenoTech LLC and stored in a −80° C. refrigerator.
(§4) Experimental procedure: Eight 96-well plates, designated T0, T5, T15, T30, T45, T60, Blank, and NCF60, were prepared. The first six incubation plates corresponded to reaction time points of 0, 5, 15, 30, 45, and 60 minutes, respectively. No test sample or control compound was added to the Blank plate.
(§5) The T0, T5, T15, T30, T45, and T60 plates were added with a 2 μL working solution of the test sample (10 mM of a solution of the compound to be tested in DMSO, diluted to 100 μM with 100% acetonitrile) and 100 μL of a S9 working solution (kidney S9 protein concentration of 1.0 mg/mL), and the Blank plate was only added with the S9 working solution. The above incubation plates were then placed in a 37° C. water bath for pre-incubation for about 10 minutes.
(§6) At the end of the pre-incubation, 98 μL of an auxiliary enzyme working solution was added to each sample well except the TO plate to start the reaction. […]

[2] = Metabolic stability in hepatocytes, SD rats; conditions: Sprague-Dawley (SD), rat, hepatocytes (cryopreserved, suspension), 0.5×10^6 cells/mL
Experimental: (§7) Test Example 7: Metabolic Stability of the Compounds of the Present Invention in Hepatocytes from Mice, Rats, Cynomolgus Macaques, and Humans
(§8) To investigate the metabolic stability of the compounds of the present invention in hepatocytes from mice, rats, Cynomolgus macaques, and humans.
(§9) Incubations were performed in 96-well plates using an external extraction method. Several 96-well sample precipitation plates, designated T0, T15, T30, T60, T90, TO-MC, T90-MC, and blank matrix, were prepared, respectively. The recovery culture medium and incubation culture medium were removed in advance and placed in a 37° C. water bath for preheating. […]
(§10) At the end of the incubation at the corresponding time point, the incubation plates were removed, from which 25 μL of a compound mixture with the cells and a control compound mixture with the cells were removed and added to sample plates containing 125 μL of stop buffer, respectively. […] All samples were mixed uniformly and then analyzed by the LC-MS/MS method.
(§11) The concentration of the compound to be tested and the concentration of the control in the sample were semi-quantitatively determined by the liquid chromatography-tandem mass spectrometry (LC-MS/MS) method without a standard curve and quality control sample. […]

[3] = Metabolic stability in hepatocytes, humans; conditions: human, hepatocytes (cryopreserved, suspension), 0.5×10^6 cells/mL
Experimental: as §7, §8, §9, §10, §11

[4] = Metabolic stability in kidney S9, Cynomolgus macaques; conditions: cynomolgus macaque
Experimental: as §1, §2, §3, §4, §5, §6

Compound: CC[C@H](C)[C@@H]([C@@H](CC(=O)N1CCC[C@H]1[C@H](OC)[C@@H](C)C(=O)N[C@H](C)[C@@H](O)c1ccccc1)OC)N(C)C(=O)[C@@H](NC(=O)[C@H](C(C)C)N(C)C(=O)OCc1ccc(NC(=O)[C@H](CCCNC(N)=O)NC(=O)[C@@H](NC(=O)CCCC(=O)NCCC(=O)N(C)CC(=O)N(C)CC(=O)N(C)CC(=O)N(C)CC(=O)N(C)CC(=O)N(C)CC(=O)N(C)CC(=O)N(C)CC(=O)N(C)CC(=O)N(C)CC(=O)N[C@H]2CCCCNC(=O)C[C@@H](C(=O)N[C@H]3CSCCC(=O)N4CN5CN(C4)C(=O)CCSC(C)(C)[C@H](NC(=O)[C@@H](CC(=O)O)NC(=O)[C@H](Cc4cccc6ccccc46)NC(=O)[C@@H]4CCCN4C3=O)C(=O)N[C@@H](CCSC)C(=O)N[C@@H](CCCCNC(=N)N)C(=O)N[C@@H](CC(=O)O)C(=O)N[C@@H](Cc3c[nH]c4ccccc34)C(=O)N[C@@H](CO)C(=O)N[C@@H]([C@@H](C)O)C(=O)N3CCC[C@H]3C(=O)N3C[C@H](O)C[C@H]3C(=O)N[C@@H](Cc3c[nH]c4ccccc34)C(=O)N[C@H](C(N)=O)CSCCC5=O)NC(=O)CN(C)C2=O)C(C)C)cc1)C(C)C [Acetate salt of PDC_2] (I: [Sar][Sar][Sar][Sar][Sar][Sar][Sar][Sar][Sar][Sar]K[Sar]DCP[1Nal][dD][Pen]M[hArg]DWSTP[Hyp]WC-NH2 / II: V[Cit][PABC][NMeV]V[Dil][Dolaproine]-X1; lactam I:11-I:13; linker I:14-I:18-I:28 via TATA; linker I:N-II:N via X2)
- half-life at 1 μM [1]: > 2.42 h
- microsomal CLint at 1 μM [1]: < 9.6 µL/min/mg
- half-life at 1 μM [2]: > 3.61 h
- CLint scaled at 1 μM ([2]; read-out: CLint (liver)): < 29.9 mL/min/kg
- half-life at 1 μM [3]: > 3.61 h
- CLint scaled at 1 μM ([3]; read-out: CLint (liver)): < 17.8 mL/min/kg
- half-life at 1 μM [4]: > 2.42 h
- microsomal CLint at 1 μM [4]: < 9.6 µL/min/mg
